Measured values as given in US20080096223A1.

Tests used:
[1] = biological target: reference Nanobody (in accordance with WO 04/062551); assay: competition ELISA: soluble ristocetin-preincubated wt-VWF at equal molar concentration against 62.5 nM biotinylated reference Nanobody on immobilized VWF
[2] = biological target: VWF in human whole blood of healthy volunteers (human) (UniProt P04275); assay: cell-based or functional assay

Substance	percent reduction of binding [1]	platelet coverage [2]
wt-VWF preincubated with 1 mg/ml ristocetin (ristocetin-activated VWF) (from UniProt P04275 764-2813)	90%	
GpIbα on platelets (from UniProt P07359 17-652) (receptor)		67.8%
